Measured values taken from US20190062386A1 (UNIVERSITY OF NORTH CAROLINA AT CHAPEL HILL, published 2019).

Target: T1, Myc tagged TRPC3 (UniProt Q13507-3 1-848, limits assumed)
T1 construct: Expressed in HEK293T cells and tested in cell lysates; also called Myc-TRPC3
T1 sequence (looked up): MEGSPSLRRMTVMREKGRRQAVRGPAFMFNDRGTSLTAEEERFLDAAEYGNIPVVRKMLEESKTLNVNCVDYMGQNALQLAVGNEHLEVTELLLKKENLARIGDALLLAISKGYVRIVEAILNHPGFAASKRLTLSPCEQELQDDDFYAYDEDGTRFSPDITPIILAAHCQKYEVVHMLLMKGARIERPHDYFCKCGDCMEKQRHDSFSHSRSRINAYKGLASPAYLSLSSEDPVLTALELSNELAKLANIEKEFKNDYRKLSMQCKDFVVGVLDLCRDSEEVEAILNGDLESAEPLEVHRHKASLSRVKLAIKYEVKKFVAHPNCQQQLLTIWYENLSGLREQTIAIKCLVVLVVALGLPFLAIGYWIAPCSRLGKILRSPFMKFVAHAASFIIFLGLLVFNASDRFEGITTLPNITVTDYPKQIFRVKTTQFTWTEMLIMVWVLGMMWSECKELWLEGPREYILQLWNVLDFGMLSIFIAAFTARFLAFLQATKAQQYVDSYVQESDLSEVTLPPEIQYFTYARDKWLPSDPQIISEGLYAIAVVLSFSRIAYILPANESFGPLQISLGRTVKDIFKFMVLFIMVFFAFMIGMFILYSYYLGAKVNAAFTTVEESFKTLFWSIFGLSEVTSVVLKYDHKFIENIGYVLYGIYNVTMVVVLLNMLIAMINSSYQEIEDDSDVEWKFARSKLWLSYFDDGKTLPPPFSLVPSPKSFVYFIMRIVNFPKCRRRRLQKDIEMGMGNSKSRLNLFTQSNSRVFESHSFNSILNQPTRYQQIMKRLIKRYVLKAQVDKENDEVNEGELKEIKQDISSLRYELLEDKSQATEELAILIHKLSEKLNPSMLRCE
Assay: co-immunoprecipitation from lysates of HEK293T cells cotransfected with V5-SPLUNC1 and Myc-TRPC3
Experimental: Immunoprecipitation analysis was performed using cell lysates from HEK293T cells cotransfected with V5-SPLUNC1 and Myc-TRPC3. Data represents an n=3 blots.
Antibodies, immunoprecipitation, and immunoblot analysis: Rabbit anti-Orai1, anti-HA epitope (Santa Cruz), anti-GFP, anti-phospho-myosin light chain, anti-total myosin light chain, anti-GAPDH (glyceraldehyde-3-phosphate dehydrogenase) (Cell Signaling Technology); mouse anti-V5 epitope (Life Technologies), were purchased from commercial sources. To detect protein expression in total cell lysates, cells were lysed in Pierce® IP lysis buffer with 25 mM Tris-HCl pH 7.4, 150 mM NaCl, 1% NP-40, 1 mM EDTA, 5% glycerol, followed by SDS-polyacrylamide electrophoresis and immunoblot.

binding result: no binding
B1: V5-SPLUNC1 (other, not shown: small tags and cut ends)
chain: QFGGLPVPLDQTLPLNVNPALPLSPTGLAGSLTNALSNGLLSGGLLGILENLPLLDILKPGGGTSGGLLGGLLGKVTSVIPGLNNIIDIKVTDPQLLELGLVQSPDGHRLYVTIPLGIKLQVNTPLVGASLLRLAVKLDITAEILAVRDKQERIHLVLGDCTHSPGSLQISLLDGLGPLPIQGLLDSLTGILNKVLPELVQGNVCPLVNEVLRGLDITLVHDIVNMLIHGLQFVIKV
notes: Expressed in HEK293T cells and tested in cell lysates; The tag is placed first only because the name is printed that way; also called pcDNA3.1(+)-V5-SPLUNC1
